Data: the domain aggregation screens of Martell et al. (2025)

Test: soluble fraction after stress (log2 fold change); higher = more stays soluble; pooled small domains, quantitative proteomics
Settings: stress: 75 degC
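Also: 20 min heating vs room temperature control held 20 min.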

Sequence | soluble fraction (log2)
HMSMEKNWVPSEDVIEILTRAGMNENFIRELIPEFIIYWSERKDVLISYDSKFIEHARLKWAQHNAE | 0.454
HMSMFTPAQVAQTLTVPPSTLRRWAKRFAPFLSPQSGKKRTYTVADLDTFQRIKELSAQGYTFAQIDQAL | -1.32
HMSMLSQERQSLILDIIKEQGSVTVTRLTEILQSSESTVRRDLSYLASKGKINKVHGGATALG | -0.39
HMSMNGNMIHATVIWKGRYFLVKMFFPQLTKPKRAEVQAQIEKAYPGSRVASYHITDYKPGEQFLHV | -1.84
HMSMPEVLSDRELEIFRMIGTGMSTGDIAKKLNISVNTIESHRKKIKDKLGIQKGSELVKAAVQWVSTQQ | -0.741
HMSMSVLFSELDQKDAGVIVEKLKERKIPYELQSGGSAIMVPANVLHETRLQLAAEGLPQSS | -0.0383
HMSMTVHGALRLLQLPTIADRPYTLKEIREAYREQAQNHHPDAGGSADAMRRLNEAYQFLKERYRQA | -0.449
HMSNEKVVKFAQELLVDEERSAISPALISAKIDQVLMFKPAWNEGLDRDAVVNELVRRFSIW | -1.24
HMSNGFFELKTSQQDELIDLIDSHTNFVRTKIEGELITAFLKLPMDAEEFNKLLFTNGIILSHLVKRK | -0.713
HMSNIIGNTAYSAIPDKQYFRLKSETAEKVANYLTENNIPFSGRINGDKTTLTIGQKNVDDYKAAVATVTG | 0.0528
HMSNIVNYEVYVYQNDAWDLLARYPSEKRAEAIEYAKSTEFSLNRPTKVIRETYDLDTQKFQEALIYLSE | -0.743
HMSNLNHSFQYKKNIGRKISLTYLGRDNESISKIYELIDSNDSGILVKNKNVEIFIHYEKIVSAKIKVS | -1.78
HMSNLTDLVSAKEAEVYLHFLESGSTAGMTEAELRAVRKIEELIQSNKIDYNGILRIRNETVK | 0.0216
HMSNNLAYSQFLDRVKNKEIRKVEIRGQSIVGYTSNNETFKTYAPLNDPKMYDELLTNDVQVQVDPP | -0.0765
HMSNQLAVPDVTNMKANAAADRLRQQGLRVELKTESSNTVPRGMAIRTDPAASTMVARGGRVTLIISSGKG | -0.248
HMSNSGFVKNNGKTEFYDASGRQAKSSWINISGKWYYFDLNGTMVTGWQRISNKWYYFLEDGSK | -0.0724
HMSNSMISKDKAMSIALAKVSGATSSNIYIELEKDDGRYTYEGEINFNNKEYEFEIDAYTGNILKWEVDSI | -0.806
HMSNTPHSREVLLEMDAVRRLLAVGEEKGEVDRADLQGAFEEAELGRGDLDGVLSILREYDVPLAR | 0.0604
HMSNVIYFNYNDYKFLFMGDAGVDKETDILEKYTLSNIDFLKVGHHGSDTSSNKGFIDSIQPKYSLIS | -1.53
HMSNWTILIIQGSAHLIDLDSKITEIDGFGSFPTKILQDYNLNEEFEIFDTNVKMVNSVQSDLQSN | -2.48
HMSNYIVELSSSEKIDDIDNNNNLINSFFSKSDSQWEYKLVFKNKNEMDVFVKKISTNNKIISYKTSS | -1.17
HMSPAETGIYHILVENGKPNRHGLDATNKNENWLRQFLITQNTRLEDVFLLLADDGGGIRFFKSQ | -1.26
HMSPAPVSVDHLAFPTRDLEATDHFYSKVVGATLVHAESGYSPSWKSDYLLITYALPDGTRLSFFDWP | 0.105
HMSPDTREAILAAARTAFARDGYQTSLRGIARDAGVDPALVHHYFPDRATLFAKAVIESTAG | -0.0532
HMSPFAHHLHELRMRHGIRQNELAELIGYDQTYISALEVGLKGPPTPEFVDKLVEGLALSRTEEAALRSAA | -0.483
HMSPFYALDEVDSFLDGVNVERLAALIARQAEQAQFLVVSHRRPMIGASTRTIGVTQARGAHTQVVGLP | -0.312

Sequence | soluble fraction (log2)
HMSPGAKIEVTGNTVNLRAGPGTNYDTRGQVKKGEQLPLLGEQGGWYRVQTSRGVAYLAGWLARVLT | -1.43
HMSPLDSHLGRRIALRRQQLNTSAADLEKAISMVPGSVARFEAGRQSLNATQLFTLSRALDVPVLYFFEG | -0.705
HMSPREDQQSRKQHILEAAAVLFAERGYYKTTTADVARAVGVTQPYVFHFFKSKEELYLAVL | 0.163
HMSPSDLSAEAQKVYALLDGRELSFDTLVEESGFDTGSLLAILMRLEMKMLVEHGADQVYRRSG | -1.51
HMSPVKAPLPGVVLDIHVSVGQEVKASDTVVTLEAMKMENAIKAGVDGKVASISVGKGDSVLEGAVLLTI | -0.0893
HMSQAVTMLKAGRLLANSKGTGAAVRDLEPGMLLYPTGQKDGTMWEVEDEMGNKGWVNSTSMQLA | 0.271
HMSQDEKITNYIYEGNKNTQTEAFVEAEKSYRKALSLSPEKPEALYNLGNTHFLDKQYDEASQRFF | 0.0479
HMSQDINVFIKTNPENATIIWDGESKGTNGIFKSNAGAHRLRIEMQGYESIDQDIQVSDKQFSFEYNLKKE | 0.138
HMSQIANLLLSKNIKVNNQNIIYYETVLKYLPNNEKKEFFINAMKNNIYFTEEEIKNFGNIFN | -2.74
HMSQIQIKLDQAIMQLPEKQRFVFMLRYFEELPYEKIAQITETSIGGAKANFHQALKKMQEIIQ | -2.96
HMSQKVQEDFLGDIRKNEIAVTVFLINGVKLQGVITWFDDASILLRRDGHTQLIYKHAVSTIMPGVAVDI | -0.582
HMSQLYINATDDGWVIGNLPADAREVLLTTLGGQVVARYHVTAPSLRVKAPRKGVYIVSVETA | -2.11
HMSQQVVTDGVNLRLRYAPSPDAETYKWADGTNRHPEKGERFPYLGDIGDFYRIDYKGLVLYVSKQHTHL | -2.04
HMSQRITYTEFVQMVKDDKVEKVEVGANQYNITPKSDDKTLVKMTYYTGFIKDENLLDLLNKHKVEIDGYI | -0.792
HMSQSIGQEKALSIALADAGVQKENALGLEVKGEYDDGQLLYEVEFRAGGVEYEYEVRASDGRIVKAERD | 0.0638
HMSQSMEVLYTDLTDKDAAAIVEKLEEEKIPYQLEDQGTTILVPPGVKYTTRLKLAAEDLPKG | 0.0723
HMSQYVPDPVLNAALVGYLDFRKQAGKPMTDYSIRLLLVDLAKLSGNPQEQAAILDQSTKNNWIGVYALG | -3.04
HMSRAARLALDALPDEWAQFAESRGLAGSAMAETWETFRDYWQAQPGQKGVKADWAATWRNWVRRETQNRG | -0.378
HMSRDYKTELQERLQVNGPVKIEYQVIAEDESKPSFKVQLLVNDKKISEGQGRNKKAAEQQAAQAAL | 0.0103
HMSREEFLTELRKALQGRVSQQTVNDNLRYYEEYILTESHKGKTEAEVIAELGNPRLLAKSIIDAENAT | 0.0701
HMSRESNISTGRQLLEAQLPTWGYKKVEDIPSKQMKTALDAFNYKDVESLLQGLGEGSVALTTALRRLMP | -0.095
HMSRFLEGILQRRAGGKNYFVPDDGSNPIFIADRNSAGAANGDRVRIAQFARRPRSGPEGEVVEILKRAK | -0.0772
HMSRGAIVTGTVIEKNQSGIYVDLGYKSDGIVPIEEFDGEESKYNVGDQIRVYVKKVDDGHGQLML | 0.142
HMSRGTRIDPNWQPSPEDRALARAEGFSDPEIDREALQFRDYWLGASGSNAVKLDWSATWRNWVRRAATNF | -0.396
HMSRKERERSQHRRDILAAGEKIFAQKGYFNATIEEIAREAEFSVGTIYNFFSNKETLYQEIIRSI | -0.418
HMSRLQDAELQAQIDKMAGAMQLRDIPVYVQDIPTINGLAAPDGRVFITQGFIDKYKLGEVSAGEIASVI | 0.29

Sequence | soluble fraction (log2)
HMSRPLISNMLRLLNLPPTVQRKVAAGVISAGHARALLGLNDEKEIEKLANRIVAEGLSVRATEEIVAIA | -1.62
HMSRWHEFLNKSEDGMKELDEQNQKVLTLLILQRFYQTPFQAKEDEEFYREFFERLSSVNEILG | -0.468
HMSSAYLTVRGIDIDVIYKDIKNLHIAVYPPFGRVRVAAPSHLDDDQVRLAVIQRLTWIKRQRERLRST | -1.62
HMSSDEAEYKLLLGQEGVAKSPLRPSGVVDFSGRRLDVQTLGDFIESGETVVVKQVNGHRVLVERK | 0.135
HMSSDEEQLATLTRLLQKQEQIIQTLGPRNPMVSLQQYANTITKVIEMAGFKDTSQFINSQIP | 0.0951
HMSSDLESVIGTHSQEANFALRSWGWIQPDETWKNLRPDQVSQILERANEFMAKAIESFANAQSE | -0.141
HMSSDLLGVRVRRARARAGLTRRRLSLLSGVSERFLAQLESGQGNISIVLIRRVAAALGAELVELIGS | -0.555
HMSSEDTQSRDRARKELSNEMSRIMKRYGLDYQPRDNADDIMNRLKAAGADENTLAYVQEKLK | -0.0442
HMSSEITYDKFIEMVDKDQVKEVTLQSGVLTVVPKIQKSYYQNASYKVNQMEDVDALTKRLEGTGIVFHY | 0.322
HMSSEITYDKFIEMVEEGNVKEVTLQSDTLTIKPKHQDSAFSEKEYYTRQMESADQLTERLEGTGIEFHS | 0.119
HMSSEQRSVLFPNLAETDKVAVIEALMAAGVNARVDSASGRVTVPSGDYYNSRAILAAQGLPTS | 0.0148
HMSSETTVPAVVGIKEDKARQLASEQGLRLRVKSREESADVEEGIIISQDPNSNTKVKKGDEIEVVVS | 0.102
HMSSFSESFHKALNNLDDKHKSVFSLRHFEGFSMKEIAETLNINEGTVKSRLFYATKTLAGALKEF | -3.45
HMSSGKTGTITLQPKQTVYGITKQYKISEADLRKLNPQLDSNLKIGDKITLPLDNIQRYSDSSSNVAQT | 0.0568
HMSSGLLTVQEQRILEHLANGERNGDIAGRLHISEGTVKWHLHNMYRKLDAATRTQAVARARALRL | 0.36
HMSSIGERISDVRKARGYTQDQLAERIHVSRQTISHWENERALPDFESIKQLSQVLGYDFSS | -0.123
HMSSIHQDAKQQLHEYIRTYIQPLMRAGKQVTVWDIIGHVTIRKPKLVQKIGTQQLINMVQDLLE | -0.624
HMSSKSDQLYLQLRRRISAMKDGEPFPTVRQLMTEYQVSQSTVTPAINQLKEKGLIEAYVGRGSFVSKK | -0.657
HMSSKTKVEDLGLSTRTLNALIGGSIKTAGGLTRKSESDLLSLDGLGEKGITEIKEALENIGLSLK | 0.103
HMSSLKKISIDELSPGMYVHSIVEQKGSVKIKSQGKVLKQAVVDALRKRGVKTLLIDLSKQFNPETGEP | -0.985
HMSSLTPRETEVLSRMAQGDANTSIAERLVITEKAVQKHINAIFAKLGLAEEPTSARRVLAVLAFLR | -0.539
HMSSLTQREYEIAELVADGLSNKAIAAELSISHTTAARHVANIMNKLGFNSRSQIAAWVADRAQG | 0.0373
HMSSNLSLHKEGNKIVILGLEGKSVIEVYDLMGRLLSSQTNYNPKQEITLLQPVIIRVTDTQQTKSFKV | -1.5
HMSSNLTVFTRNNAIIVNSDVVRKLNVFAVDGRLVRSVDLSVGENVINNISRGMYLIDKQKVVV | -2.77
HMSSPDMSLLYSELDVKDSGQIVTILEQRNIPYEVRNNGSQIYIPSNNVQRIRLSLAQEGLPSG | 0.111
